The values below come from PMC10648341, “Cloning and Functional Characterization of NADPH-Cytochrome P450 Reductases in Aconitum vilmorinianum” (Molecules, 2023).

In assay [1] the target is cytochrome c (UniProt P00004).
For assay [2], the target named is T1, CYP76AH1 (Salvia miltiorrhiza, UniProt S4UX02).
T1 construct: ORF in pESC-His, co-expressed with AvCPR1 (also AvCPR2 or SmCPR1) in miltiradiene-producing yeast YJ14; with NADPH--cytochrome P450 reductase 1 (Aconitum vilmorinianum)
T1 sequence (S4UX02 1-495): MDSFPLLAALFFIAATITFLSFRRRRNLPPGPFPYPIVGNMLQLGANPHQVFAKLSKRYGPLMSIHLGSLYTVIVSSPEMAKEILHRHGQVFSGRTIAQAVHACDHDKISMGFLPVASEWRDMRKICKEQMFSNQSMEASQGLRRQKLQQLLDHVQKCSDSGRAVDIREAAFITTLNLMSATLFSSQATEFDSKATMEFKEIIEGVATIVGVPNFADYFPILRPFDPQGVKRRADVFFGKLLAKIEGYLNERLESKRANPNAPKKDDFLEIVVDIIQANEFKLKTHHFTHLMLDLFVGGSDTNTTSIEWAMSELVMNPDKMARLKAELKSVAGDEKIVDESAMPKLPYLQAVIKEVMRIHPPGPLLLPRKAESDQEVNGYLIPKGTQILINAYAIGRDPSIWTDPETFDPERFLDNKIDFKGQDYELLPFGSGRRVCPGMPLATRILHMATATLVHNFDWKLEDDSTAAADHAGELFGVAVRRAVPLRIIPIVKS
Kind of assay: HPLC of yeast extracts, ferruginol formation. In kind it is cell-based. The settings on record: miltiradiene made by host yeast YJ14; co-expressed AvCPR1, AvCPR2 or SmCPR1.

Chain of cytochrome c (P00004 whole entry): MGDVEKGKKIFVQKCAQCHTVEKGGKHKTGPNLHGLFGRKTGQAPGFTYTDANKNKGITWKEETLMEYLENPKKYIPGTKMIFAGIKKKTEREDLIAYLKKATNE

As to “truncated AvCPR1 (NADPH-cytochrome P450 reductase 1 of Aconitum vilmorinianum, without the N-terminal membrane-anchoring region) (enzyme)”, in assay [1], the Km for cytochrome c: steady-state reduction of cytochrome c (0-200 μM) by 4 μg recombinant enzyme with 100 μmol/L NADPH, absorbance at 550 nm, 100 mM Tris-HCl, 0.1 mM EDTA, pH 7.4, 25 °C turned out to be 344 μmol·L^−1. As to `CC(C)c1cc2c(cc1O)[C@@]1(C)CCCC(C)(C)[C@@H]1CC2` [ferruginol], in assay [2], the “HPLC of yeast extracts, ferruginol formation” value is “transgenic strains co-expressing AvCPRs or SmCPR with CYP76AH1 produced ferruginol”. Consider “truncated AvCPR2 (NADPH-cytochrome P450 reductase 2 of Aconitum vilmorinianum, without the N-terminal membrane-anchoring region) (enzyme)”, for which the Km for cytochrome c: steady-state reduction of cytochrome c (0-200 μM) by 4 μg recombinant enzyme with 100 μmol/L NADPH, absorbance at 550 nm, 100 mM Tris-HCl, 0.1 mM EDTA, pH 7.4, 25 °C in assay [1] stood at 78.1 μmol·L^−1.
